# Source: US20210147525A1 (University of California, published 2021)
# Biological target: T1, Biotin-HSA (human, UniProt P02768, biotinylated (sites and number not given))
# T1 construct: biotinylated, without the compound; not further described; also called biotinylated-HSA; biotinylated human albumin
# Experiment: binding of biotinylated HSA without compound to transfected HEK293 cells, detected with avidin-alkaline phosphatase
# T1 sequence (P02768 25-609 limits assumed): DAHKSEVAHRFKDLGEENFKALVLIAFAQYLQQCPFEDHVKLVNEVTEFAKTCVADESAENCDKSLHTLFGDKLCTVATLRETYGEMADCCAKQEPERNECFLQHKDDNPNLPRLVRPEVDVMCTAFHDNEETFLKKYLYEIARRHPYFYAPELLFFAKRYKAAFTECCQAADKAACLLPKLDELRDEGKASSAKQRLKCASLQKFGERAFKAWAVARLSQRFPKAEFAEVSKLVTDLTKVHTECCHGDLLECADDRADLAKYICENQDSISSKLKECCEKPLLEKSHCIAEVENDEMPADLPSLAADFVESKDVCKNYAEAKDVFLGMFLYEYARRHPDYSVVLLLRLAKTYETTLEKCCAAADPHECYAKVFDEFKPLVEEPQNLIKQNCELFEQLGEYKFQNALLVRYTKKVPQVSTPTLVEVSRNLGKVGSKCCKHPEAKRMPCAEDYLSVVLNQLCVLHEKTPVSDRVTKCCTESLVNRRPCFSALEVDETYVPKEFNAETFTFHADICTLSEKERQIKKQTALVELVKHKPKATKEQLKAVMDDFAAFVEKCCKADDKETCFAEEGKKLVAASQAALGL
binder,measurement,value
"R-PLXDC1 (full length human PLXDC1 with an epitope tag at the N-terminus, on transfected cells) (receptor, not shown: small tags and cut ends, also called TEM7) LSPQPGAGHDEGPGSGWAAKGTVRGWNRRARESPGHVSEPDRTQLSQDLGGGTLAMDTLPDNRTRVVEDNHSYYVSRLYGPSEPHSRELWVDVAEANRSQVKIHTILSNTHRQASRVVLSFDFPFYGHPLRQITIATGGFIFMGDVIHRMLTATQYVAPLMANFNPGYSDNSTVVYFDNGTVFVVQWDHVYLQGWEDKGSFTFQAALHHDGRIVFAYKEIPMSVPEISSSQHPVKTGLSDAFMILNPSPDVPESRRRSIFEYHRIELDPSKVTSMSAVEFTPLPTCLQHRSCDACMSSDLTFNCSWCHVLQRCSSGFDRYRQEWMDYGCAQEAEGRMCEDFQDEDHDSASPDTSFSPYDGDLTTTSSSLFIDSLTTEDDTKLNPYAGGDGLQNNLSPKTKGTPVHLGTIVGIVLAVLLVAAIILAGIYINGHPTSNAALFFIERRPHHWPAMKFRSHPDHSTYAEVEPSGHEKEGFMEAEQC",binding result,no binding
